Assays:
HLA-A*24:03 = assay: IEDB peptide-MHC binding, purified MHC/competitive/fluorescence; filed as Kd, often an IC50 or EC50 that approximates it; ≥ and ≤ were set here for values at or beyond the usual limits of such assays; details: source organism: Entamoeba histolytica HM-1:IMSS
HLA-B*15:01 [1] = assay: as above; details: source organism: Entamoeba histolytica HM-1:IMSS
HLA-A*02:19 [2] = assay: as above; details: source organism: Entamoeba histolytica HM-1:IMSS
HLA-A*02:03 [3] = assay: as above; details: source organism: Entamoeba histolytica HM-1:IMSS
HLA-B*51:01 = assay: as above; details: source organism: Entamoeba histolytica HM-1:IMSS
HLA-A*26:01 = assay: as above; details: source organism: Entamoeba histolytica HM-1:IMSS
HLA-B*27:03 = assay: as above; details: source organism: Entamoeba histolytica HM-1:IMSS
HLA-A*03:01 [4] = assay: as above; details: source organism: Entamoeba histolytica HM-1:IMSS
HLA-A*02:16 [5] = assay: as above; details: source organism: Entamoeba histolytica HM-1:IMSS
HLA-A*02:01 [6] = assay: as above; details: source organism: Entamoeba histolytica HM-1:IMSS
HLA-A*02:12 [7] = assay: as above; details: source organism: Entamoeba histolytica HM-1:IMSS
HLA-A*69:01 [8] = assay: as above; details: source organism: Entamoeba histolytica HM-1:IMSS
HLA-B*57:01 = assay: as above; details: source organism: Entamoeba histolytica HM-1:IMSS
HLA-A*29:02 = assay: as above; details: source organism: Entamoeba histolytica HM-1:IMSS
HLA-B*15:17 = assay: as above; details: source organism: Entamoeba histolytica HM-1:IMSS
HLA-A*80:01 = assay: as above; details: source organism: Entamoeba histolytica HM-1:IMSS
HLA-A*25:01 = assay: as above; details: source organism: Entamoeba histolytica HM-1:IMSS
HLA-A*68:02 = assay: as above; details: source organism: Entamoeba histolytica HM-1:IMSS
HLA-B*18:01 = assay: as above; details: source organism: Entamoeba histolytica HM-1:IMSS
HLA-A*23:01 = assay: as above; details: source organism: Entamoeba histolytica HM-1:IMSS
HLA-A*02:11 [9] = assay: as above; details: source organism: Entamoeba histolytica HM-1:IMSS
HLA-B*46:01 = assay: as above; details: source organism: Entamoeba histolytica HM-1:IMSS
HLA-B*39:01 = assay: as above; details: source organism: Entamoeba histolytica HM-1:IMSS
HLA-A*31:01 [10] = assay: IEDB peptide-MHC binding, purified MHC/competitive/fluorescence; ≥ and ≤ were set here for values at or beyond the usual limits of such assays; details: source organism: Homo sapiens
HLA-B*08:01 = assay: IEDB peptide-MHC binding, purified MHC/direct/fluorescence; filed as Kd, often an IC50 or EC50 that approximates it; ≥ and ≤ were set here for values at or beyond the usual limits of such assays; details: source organism: Yersinia pestis CA88-4125
HLA-B*15:01 [11] = assay: as above; details: source organism: Yersinia pestis
HLA-A*01:01 = assay: as above; details: source organism: Yersinia pestis
HLA-A*02:19 [12] = assay: as above; details: source organism: Yersinia pestis CA88-4125
HLA-A*02:03 [13] = assay: as above; details: source organism: Yersinia pestis CA88-4125
HLA-B*58:01 = assay: as above; details: source organism: Yersinia pestis
HLA-B*40:01 = assay: as above; details: source organism: Yersinia pestis
HLA-B*44:02 = assay: as above; details: source organism: Yersinia pestis
HLA-B*27:05 = assay: as above; details: source organism: Yersinia pestis
HLA-A*31:01 [14] = assay: as above; details: source organism: Yersinia pestis
HLA-A*03:01 [15] = assay: as above; details: source organism: Yersinia pestis
HLA-B*07:02 = assay: as above; details: source organism: Yersinia pestis
HLA-A*02:16 [16] = assay: as above; details: source organism: Yersinia pestis CA88-4125
HLA-A*02:01 [17] = assay: as above; details: source organism: Yersinia pestis
HLA-A*02:12 [18] = assay: as above; details: source organism: Yersinia pestis CA88-4125
HLA-A*69:01 [19] = assay: as above; details: source organism: Yersinia pestis
HLA-A*11:01 = assay: as above; details: source organism: Yersinia pestis
HLA-A*02:06 = assay: as above; details: source organism: Yersinia pestis CA88-4125
HLA-B*08:02 = assay: as above; details: source organism: Yersinia pestis CA88-4125
HLA-A*02:11 [20] = assay: as above; details: source organism: Yersinia pestis CA88-4125
HLA-A*02:50 = assay: IEDB peptide-MHC binding, purified MHC/competitive/fluorescence; filed as Kd, often an IC50 or EC50 that approximates it; ≥ and ≤ were set here for values at or beyond the usual limits of such assays; details: source organism: Yersinia pestis Nepal516

LICYQIEYI
≥ 20 µM: Kd (HLA-A*24:03) | Kd (HLA-B*15:01 [1]) | Kd (HLA-A*02:19 [2]) | Kd (HLA-A*02:03 [3]) | Kd (HLA-B*51:01) | Kd (HLA-A*26:01) | Kd (HLA-B*27:03) | Kd (HLA-A*03:01 [4]) | Kd (HLA-A*02:16 [5]) | Kd (HLA-A*02:01 [6]) | Kd (HLA-A*02:12 [7]) | Kd (HLA-A*69:01 [8]) | Kd (HLA-B*57:01) | Kd (HLA-A*29:02) | Kd (HLA-B*15:17) | Kd (HLA-A*80:01) | Kd (HLA-A*25:01) | Kd (HLA-A*68:02) | Kd (HLA-B*18:01) | Kd (HLA-A*23:01) | Kd (HLA-B*46:01) | Kd (HLA-B*39:01)
0.0008 µM: Kd (HLA-A*02:11 [9])

TMGTGTFGR
0.388 µM: IC50 (HLA-A*31:01 [10])

FLPPQIPVI
0.018 µM: Kd (HLA-A*02:19 [12])
≥ 20 µM: Kd (HLA-B*08:01) | Kd (HLA-A*01:01) | Kd (HLA-B*58:01) | Kd (HLA-B*40:01) | Kd (HLA-B*44:02) | Kd (HLA-B*27:05) | Kd (HLA-A*31:01 [14]) | Kd (HLA-A*03:01 [15]) | Kd (HLA-B*07:02) | Kd (HLA-A*11:01) | Kd (HLA-B*08:02)
0.477 µM: Kd (HLA-B*15:01 [11])
4.7 µM: Kd (HLA-A*69:01 [19])
≤ 0.0001 µM: Kd (HLA-A*02:50)
0.0214 µM: Kd (HLA-A*02:01 [17])
≤ 0.001 µM: Kd (HLA-A*02:03 [13]) | Kd (HLA-A*02:16 [16]) | Kd (HLA-A*02:12 [18]) | Kd (HLA-A*02:06) | Kd (HLA-A*02:11 [20])
